This note sets out measurements from US20250042977A1 (WUHAN BANKE BIOTECHNOLOGY, published 2025).

In one assay the target is T1, bovine serum albumin (bovine, UniProt P02769 25-607).
T1 construct: Negative control; also called BSA
The assay can be described thus: ELISA, BSA as negative control, detection with HRP-Anti-FLAG. On the technique in general: ELISA stands for enzyme-linked immunosorbent assay.

The target of assay [1] is F protein of respiratory syncytial virus type B (RSV B) (human respiratory syncytial virus type B). The assay can be described thus: cell-based or functional assay.
Assay [2] has as its target F protein of respiratory syncytial virus type A (RSV A) (human respiratory syncytial virus type A). The experiment in a line: cell-based or functional assay.
The target of assay [3] is T2, recombinant human respiratory syncytial virus envelope protein F fused to the Fc fragment of antibody IgG1 … (human respiratory syncytial virus, UniProt P03420 26-524; P01857 99-330 = IgG part).
T2 construct: also called recombinant F protein; RSV F protein
T2 sequence (P03420 26-524, tags or fused parts left off): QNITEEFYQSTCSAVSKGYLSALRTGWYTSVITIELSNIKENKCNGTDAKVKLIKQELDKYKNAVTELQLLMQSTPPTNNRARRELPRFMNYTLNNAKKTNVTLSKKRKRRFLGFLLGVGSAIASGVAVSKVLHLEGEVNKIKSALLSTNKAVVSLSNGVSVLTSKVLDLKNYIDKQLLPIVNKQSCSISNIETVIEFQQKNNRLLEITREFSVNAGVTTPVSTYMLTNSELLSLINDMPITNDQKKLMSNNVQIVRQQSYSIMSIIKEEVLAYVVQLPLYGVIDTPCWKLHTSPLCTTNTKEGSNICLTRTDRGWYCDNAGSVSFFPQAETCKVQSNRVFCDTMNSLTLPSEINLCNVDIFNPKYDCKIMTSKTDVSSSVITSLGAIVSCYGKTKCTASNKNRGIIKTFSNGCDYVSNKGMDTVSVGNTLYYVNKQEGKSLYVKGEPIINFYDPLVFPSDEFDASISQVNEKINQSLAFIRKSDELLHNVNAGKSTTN
The experiment in a line: ELISA, recF (4 ug/mL) coated, detection with HRP-Anti-FLAG.

The term EC50 denotes the midpoint of the concentration-response curve.

T1 sequence (P02769 25-607 limits assumed): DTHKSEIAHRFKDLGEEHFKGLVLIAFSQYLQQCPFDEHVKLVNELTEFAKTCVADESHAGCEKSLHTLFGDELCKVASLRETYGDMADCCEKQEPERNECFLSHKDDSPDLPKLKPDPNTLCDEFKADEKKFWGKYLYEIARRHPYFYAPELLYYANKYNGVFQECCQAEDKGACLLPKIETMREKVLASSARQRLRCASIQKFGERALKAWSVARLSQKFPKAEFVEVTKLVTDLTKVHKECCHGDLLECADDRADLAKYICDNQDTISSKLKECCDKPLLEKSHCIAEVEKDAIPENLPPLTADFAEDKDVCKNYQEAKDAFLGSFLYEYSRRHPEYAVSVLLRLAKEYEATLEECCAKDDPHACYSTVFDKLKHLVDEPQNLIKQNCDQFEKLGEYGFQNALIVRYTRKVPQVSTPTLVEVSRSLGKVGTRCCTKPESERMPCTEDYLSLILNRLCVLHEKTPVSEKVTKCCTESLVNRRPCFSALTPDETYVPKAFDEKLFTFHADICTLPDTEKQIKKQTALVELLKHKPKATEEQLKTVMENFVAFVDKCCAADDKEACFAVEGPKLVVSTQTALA
Protocol for bovine serum albumin: recF (4 μg/mL) was coated on an ELISA plate and incubated overnight at 4° C. and then blocked with PBS+3% milk at 37° C. for 1 h. […] The plate was then washed four times with PBST (PBS+0.05% Tween 20) and then incubated with HRP-Anti-FLAG monoclonal antibody at 37° C. for 1 h. The ABTS was added for color development. Bovine serum albumin (BSA) was used as a negative control.

B1: C-based single domain antibody BBT-VC001-1 (designed binder)
chain: PSVLCLPPKPKDTLVISRTPEVTCVVSGYNPYDFPIIKFKWYVDGVEVDNAKVKPRDENSYNTDSVVSKLTVLHQDWLNGKEYKCKVSAREGGSSGEWYYDLWGPIECTISKAK
notes: expressed in E. coli HB2151; also called C-type nanobody BBT-VC001-1; BBC-VC001-1; not shown: C-terminal 6x His tag and FLAG tag
Regarding B1, in the assay with bovine serum albumin, the binding result is given as “no binding”. Also, the “IC50 for inhibition of respiratory syncytial virus type B (infection of Hep-2 cells)” value in assay [1] amounted to 8.42 ng/mL. In addition, the “IC50 for inhibition of respiratory syncytial virus type A (infection of Hep-2 cells)” value in assay [2] amounted to 8.33 ng/mL. Besides, in assay [3], the EC50 was 28 nM.
